Assay [1] has as its target T1, Recombinant mouse sclerostin (mouse, UniProt Q99P68 24-211).
T1 sequence: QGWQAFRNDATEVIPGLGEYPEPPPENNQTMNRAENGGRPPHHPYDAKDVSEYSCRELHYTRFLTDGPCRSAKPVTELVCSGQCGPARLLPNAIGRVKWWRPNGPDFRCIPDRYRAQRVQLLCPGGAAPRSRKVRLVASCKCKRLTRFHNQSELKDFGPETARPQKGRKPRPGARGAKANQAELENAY
The assay can be described thus: cell-based or functional assay.

Assay [2] concerns the target T1, Recombinant mouse sclerostin. As to the kind of experiment: cell-based or functional assay. This is another data set of the same source.
In assay [3] the target is T2, Recombinant human sclerostin (human, UniProt Q9BQB4 24-213).
T2 construct: Whole entry as named; Secreted recombinant protein purified from FreeStyle293-F conditioned medium; also called human-SOST; Human SOST
T2 sequence: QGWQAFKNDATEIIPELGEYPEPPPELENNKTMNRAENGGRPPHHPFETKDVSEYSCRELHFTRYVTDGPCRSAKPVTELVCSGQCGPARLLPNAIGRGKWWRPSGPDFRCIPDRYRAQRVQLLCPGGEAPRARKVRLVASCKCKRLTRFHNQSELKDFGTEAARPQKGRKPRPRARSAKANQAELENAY
The assay can be described thus: SPR (Biacore), dissociation at pH 5.8 of complex formed at pH 7.4. (Surface plasmon resonance follows binding to a sensor surface in real time, without labels.)
Method: (§1) The affinity of anti-sclerostin variants binding to human, cynomolgus monkey (cyno), rat, or mouse sclerostin at pH 7.4 and pH 5.8 were determined at 37 degrees C. using Biacore T200 instrument (GE Healthcare). Anti-human Fc (GE Healthcare) was immobilized onto all flow cells of a CM4 sensor chip using amine coupling kit (GE Healthcare). All antibodies and analytes were prepared in ACES pH7.4 or pH 5.8 buffer containing 20 mM ACES, 150 mM NaCl, 1.2 mM CaCl₂, 0.05% Tween 20, 0.005% NaN₃. Each antibody was captured onto the sensor surface by anti-human Fc. […] Sensor surface was regenerated each cycle with 3M MgCl₂.
(§2) The pH dependent interaction assessment was determined by a modified Biacore assay. Briefly, an additional dissociation phase at pH5.8 was integrated into the Biacore assay immediately after dissociation phase at pH7.4. This is to assess the pH-dependent dissociation between antibody and antigen from the complexes formed at pH7.4. The dissociation rate at pH5.8 buffer was determined by processing and fitting data using Scrubber 2.0 (BioLogic Software) curve fitting software.

The target in assay [4] is T3, Recombinant rat sclerostin (rat, UniProt Q99P67 29-213).
T3 construct: Whole entry as named; also called rat-SOST
T3 sequence: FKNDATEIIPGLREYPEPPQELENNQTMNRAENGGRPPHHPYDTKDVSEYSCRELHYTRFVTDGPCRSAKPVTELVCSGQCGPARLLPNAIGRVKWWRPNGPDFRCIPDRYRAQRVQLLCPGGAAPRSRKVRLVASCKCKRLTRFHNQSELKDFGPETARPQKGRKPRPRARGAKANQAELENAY
The assay can be described thus: SPR (Biacore T200), 37 C, dissociation at pH 5.8 of complex formed at pH 7.4.
Method: as §1, §2

The target in assay [5] is T4, Recombinant cynomolgus monkey sclerostin (cynomolgus monkey, UniProt Q9BG78 24-213 (Chlorocebus aethiops entry)).
T4 construct: Whole entry as named; expressed and purified as the human counterpart; also called cyno-SOST; cyno SOST
T4 chain: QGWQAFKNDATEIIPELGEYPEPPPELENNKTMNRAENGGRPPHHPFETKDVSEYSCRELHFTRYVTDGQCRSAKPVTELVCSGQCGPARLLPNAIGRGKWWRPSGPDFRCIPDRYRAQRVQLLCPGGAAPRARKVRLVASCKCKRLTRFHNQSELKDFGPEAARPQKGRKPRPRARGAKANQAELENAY
The assay is described as above.
Method: as §1, §2

Assay [6] has as its target T1, Recombinant mouse sclerostin. Described as above.
Method: as §1, §2
In assay [7] the target is T2, Recombinant human sclerostin. The assay is described as above.
Method: as §1, §2
For assay [8] the target is unchanged. As to the kind of experiment: cell-based or functional assay.
The target in assay [9] is T4, Recombinant cynomolgus monkey sclerostin. The assay can be described thus: cell-based or functional assay.
In assay [10] the target is T2, Recombinant human sclerostin. The assay can be described thus: SPR; captured antibody (SG1/SK1 constant regions), recombinant human SOST as analyte; response normalised by the capture level of the antibody [panel A-A-B].

B1: mabB//mabA_pH1-BS01 (bispecific antibody, human IgG1, kappa)
heavy 1: QVQLVQSGAEVKKPGASVKVSCKVSGFPIKHHFQHWVRQAPGKGLEWMGWSDPEIGDTEYASKFQGRVTMTEDTSTDTAYMELSSLRSEDTAVYYCATGDTTYKFDFWGQGTTVTVSSASTKGPSVFPLAPSSRSTSESTAALGCLVKDYFPEPVTVSWNSGALTSGVHTFPAVLQSSGLYSLSSVVTVPSSSLGTKTYTCNVDHKPSNTKVDKRVEPKSCDKTHTCPPCPAPELLGGPSVFLFPPKPKDTLMISRTPEVTCVVVDVSQEDPEVQFNWYVDGVEVHNAKTKPREEQFNSTYRVVSVLTVLHQDWLNGKEYKCKVSNKGLPSSIEKTISKAKGQPREPQVYTLPPSREEMTKNQVSLTCLVKGFYPSDIAVEWESNGQPENNYKTTPPYLDSDGSFFLYSKLTVDKSRWQQGNVFSCSVMHEALHNHYTQESLSLSP
light 1: DIQMTQSPSSLSASVGDRVTITCKASQDVHTAVAWYQQKPGKAPKLLIYWASTRWTGVPSRFSGSGSGTDFTLTISSLQPEDFATYYCQQYSDYHWTFGGGTKVEIKRTVAAPSVFIFPPSDEQLKSGTASVVCLLNNFYPREAKVQWKVDNALQSGNSQESVTEQDSKDSTYSLSSTLTLSKADYEKHKVYACEVTHQGLSSPVTKSFNRGEC
heavy 2: EVQLVQSGAEVKKPGASVKVSCKASGYTFTDYNMHWVRQAPGQGLEWMGEINPHSGHAGYNQKFKGRVTMTTDTSTSTAYMELRSLRSDDTAVYYCARLHYDDIHDDWYFDVWGQGTTVTVSSASTKGPSVFPLAPSSRSTSESTAALGCLVKDYFPEPVTVSWNSGALTSGVHTFPAVLQSSGLYSLSSVVTVPSSSLGTKTYTCNVDHKPSNTKVDKRVEPKSCDKTHTCPPCPAPELLGGPSVFLFPPKPKDTLMISRTPEVTCVVVDVSQEDPEVQFNWYVDGVEVHNAKTKPREEQFNSTYRVVSVLTVLHQDWLNGKEYKCKVSNKGLPSSIEKTISKAKGQPREPQVYTLPPSRKEMTKNQVSLTCLVKGFYPSDIAVEWESNGQPENNYKTTPPYLDSDGSFFLYSKLTVDKSRWQQGNVFSCSVMHEALHNHYTQKSLSLSP
light 2: not shown
B1: the “IC50 (read off the curve); Wnt1-induced TCF/LEF luciferase reporter in HEK293T cells, % Inhibition of mouse SOST” value in assay [1] is about 8 µg/mL. In [2], the “MFI of pHrodo-Red-labelled mouse sclerostin taken up into MDCK cells expressing human Fc gamma receptor IIB and human FcRn (flow cytometry)” value was found to be 2430 MFI.

B2: mabB//mabA_pH2-BS01 (bispecific antibody, human IgG1, kappa)
heavy 1: QVQLVQSGAEVKKPGASVKVSCKVSGFPIKHHFQHWVRQAPGKGLEWMGWSDPEIGDTEYASKFQGRVTMTEDTSTDTAYMELSSLRSEDTAVYYCATGHTTYKFDFWGQGTTVTVSSASTKGPSVFPLAPSSRSTSESTAALGCLVKDYFPEPVTVSWNSGALTSGVHTFPAVLQSSGLYSLSSVVTVPSSSLGTKTYTCNVDHKPSNTKVDKRVEPKSCDKTHTCPPCPAPELLGGPSVFLFPPKPKDTLMISRTPEVTCVVVDVSQEDPEVQFNWYVDGVEVHNAKTKPREEQFNSTYRVVSVLTVLHQDWLNGKEYKCKVSNKGLPSSIEKTISKAKGQPREPQVYTLPPSREEMTKNQVSLTCLVKGFYPSDIAVEWESNGQPENNYKTTPPYLDSDGSFFLYSKLTVDKSRWQQGNVFSCSVMHEALHNHYTQESLSLSP
light 1: DIQMTQSPSSLSASVGDRVTITCKASQDVHTAVAWYQQKPGKAPKLLIYWASTRWTGVPSRFSGSGSGTDFTLTISSLQPEDFATYYCQQYSDYHWTFGGGTKVEIKRTVAAPSVFIFPPSDEQLKSGTASVVCLLNNFYPREAKVQWKVDNALQSGNSQESVTEQDSKDSTYSLSSTLTLSKADYEKHKVYACEVTHQGLSSPVTKSFNRGEC
heavy 2: EVQLVQSGAEVKKPGASVKVSCKASGYTFTDYNMHWVRQAPGQGLEWMGEINPHSGHAGYNQKFKGRVTMTTDTSTSTAYMELRSLRSDDTAVYYCARLHYDDIHDDWYFDVWGQGTTVTVSSASTKGPSVFPLAPSSRSTSESTAALGCLVKDYFPEPVTVSWNSGALTSGVHTFPAVLQSSGLYSLSSVVTVPSSSLGTKTYTCNVDHKPSNTKVDKRVEPKSCDKTHTCPPCPAPELLGGPSVFLFPPKPKDTLMISRTPEVTCVVVDVSQEDPEVQFNWYVDGVEVHNAKTKPREEQFNSTYRVVSVLTVLHQDWLNGKEYKCKVSNKGLPSSIEKTISKAKGQPREPQVYTLPPSRKEMTKNQVSLTCLVKGFYPSDIAVEWESNGQPENNYKTTPPYLDSDGSFFLYSKLTVDKSRWQQGNVFSCSVMHEALHNHYTQKSLSLSP
light 2: not shown
In the case of B2, in assay [1], the “IC50 (read off the curve); Wnt1-induced TCF/LEF luciferase reporter in HEK293T cells, % Inhibition of mouse SOST” value is about 9 µg/mL. Besides, the “MFI of pHrodo-Red-labelled mouse sclerostin taken up into MDCK cells expressing human Fc gamma receptor IIB and human FcRn (flow cytometry)” value in assay [2] was 1960 MFI.

B3: amH848/bsH638/abL152 (bispecific antibody)
heavy 1: not shown
heavy 2: not shown
VL: DIQMTQSPSSLSASVGDRVTITCRASEGIHDALAWYQQKPGKAPKLLIYWASTLESGVPSRFSGSGSGTDFTLTISSLQPEDFATYYCQQGDTLPYTFGGGTKVEIK
notes: Biparatopic, common light chain
The koff is the first-order rate constant of dissociation. For B3, in assay [3], the koff came to 0.1 s⁻¹.

B4: mabA_NpH1 (antibody, V domains shown)
VH: EVQLVQSGAEVKKPGASVKVSCKASGYTFTDYNMHWVRQAPGQGLEWMGEINPNSGGAGYNQKFKGRVTMTTDTSTSTAYMELRSLRSDDTAVYYCARLGYDDIYDDWYFHVWGQGTTVTVSS
VL: DIQMTQSPSSLSASVGDRVTITCRASQDISNYLNWYQQKPGKAPKLLIYHTSRLLSGVPSRFSGSGSGTDFTLTISSLQPEDFATYYCQQGDTLPYTFGGGTKVEIK
For B4, the koff in assay [4] is 0.000805 s⁻¹; in [5], 0.00182 s⁻¹; in [6], 0.00191 s⁻¹; in assay [7], 0.00214 s⁻¹.

B5: mabA_pH2 (antibody, V domains shown)
VH: EVQLVQSGAEVKKPGASVKVSCKASGYTFTDYNMHWVRQAPGQGLEWMGEINPNSGHAGYNQKFKGRVTMTTDTSTSTAYMELRSLRSDDTAVYYCARLHYDHIYDDWYFDVWGQGTTVTVSS
VL: DIQMTQSPSSLSASVGDRVTITCRASHDISNYLNWYQQKPGKAPKLLIYYTSRLLSGVPSRFSGSGSGTDFTLTISSLQPEDFATYYCQQGDTLPYTFGGGTKVEIK
On to B5, for which the koff in [4] stood at 0.00486 s⁻¹; in [6], 0.00805 s⁻¹.

B6: amH852/bsH638/abL152 (bispecific antibody)
heavy 1: not shown
heavy 2: not shown
VL: DIQMTQSPSSLSASVGDRVTITCRASEGIHDALAWYQQKPGKAPKLLIYWASTLESGVPSRFSGSGSGTDFTLTISSLQPEDFATYYCQQGDTLPYTFGGGTKVEIK
notes: as for B3
Regarding B6, in assay [3], the koff stood at 0.028 s⁻¹. In addition, the “IC50 (read off the curve); Wnt1-induced TCF/LEF luciferase reporter in HEK293T cells, % Inhibition of human SOST” value in assay [8] was about 10 µg/mL.

B7: amH852/bsH656/abL152 (bispecific antibody)
heavy 1: not shown
heavy 2: not shown
VL: DIQMTQSPSSLSASVGDRVTITCRASEGIHDALAWYQQKPGKAPKLLIYWASTLESGVPSRFSGSGSGTDFTLTISSLQPEDFATYYCQQGDTLPYTFGGGTKVEIK
As for B7, the “IC50 (read off the curve); Wnt1-induced TCF/LEF luciferase reporter in HEK293T cells, % Inhibition of human SOST” value in [8] is about 10 µg/mL.

B8: mabA-hG2 (antibody, human IgG2, kappa, V domains shown)
VH: EVQLVQSGAEVKKPGASVKVSCKASGYTFTDYNMHWVRQAPGQGLEWMGEINPNSGGAGYNQKFKGRVTMTTDTSTSTAYMELRSLRSDDTAVYYCARLGYDDIYDDWYFDVWGQGTTVTVSS
VL: DIQMTQSPSSLSASVGDRVTITCRASQDISNYLNWYQQKPGKAPKLLIYYTSRLLSGVPSRFSGSGSGTDFTLTISSLQPEDFATYYCQQGDTLPYTFGGGTKVEIKR
With B8, the “IC50 (read off the curve); Wnt1-induced TCF/LEF luciferase reporter in HEK293T cells, % Inhibition of monkey SOST” value in assay [9] was about 4 µg/mL.

B9: mabA heavy chain combined with light chain variant A-A-B (antibody, human IgG1, kappa, V domains shown)
VH: EVQLVQSGAEVKKPGASVKVSCKASGYTFTDYNMHWVRQAPGQGLEWMGEINPNSGGAGYNQKFKGRVTMTTDTSTSTAYMELRSLRSDDTAVYYCARLGYDDIYDDWYFDVWGQGTTVTVSS
VL: DIQMTQSPSSLSASVGDRVTITCRASQDISNYLNWYQQKPGKAPKLLIYYTSRLLSGVPSRFSGSGSGTDFTLTISSLQPEDFATYYCQQYSDYPWTFGGGTKVEIKR
notes: also called A-A-B with the mabA heavy chain
Regarding B9, the binding result in [10] is “no binding”.

B10: mabB heavy chain combined with light chain variant A-A-B (antibody, human IgG1, kappa, V domains shown)
VH: QVQLVQSGAEVKKPGASVKVSCKVSGFPIKDTFQHWVRQAPGKGLEWMGWSDPEIGDTEYASKFQGRVTMTEDTSTDTAYMELSSLRSEDTAVYYCATGDTTYKFDFWGQGTTVTVSS
VL: DIQMTQSPSSLSASVGDRVTITCRASQDISNYLNWYQQKPGKAPKLLIYYTSRLLSGVPSRFSGSGSGTDFTLTISSLQPEDFATYYCQQYSDYPWTFGGGTKVEIKR
notes: also called A-A-B with the mabB heavy chain
Consider B10, for which the binding result in assay [10] was “binds”.

(Values after US20190352387A1 (Chugai, published 2019).)
